What was measured:
[1] = biological target: transmembrane (TM) domain of the human nicotinic acetylcholine receptor α4 subunit (human); assay: SEC-MALS
[2] = biological target: transmembrane (TM) domain of the human nicotinic acetylcholine receptor β2 subunit (human); assay: SEC-MALS

| stoichiometry N [1] | stoichiometry N [2] | Substance |
| --- | --- | --- |
| 5 | – | transmembrane (TM) domain of the human nicotinic acetylcholine receptor α4 subunit (domain or fragment) |
| – | 5 | transmembrane (TM) domain of the human nicotinic acetylcholine receptor β2 subunit (domain or fragment) |
